tested on: CNCCCC(=O)c1cccnc1; test: purified protein; type: biochemical, Pseudomonas putida; settings: Tris-HCl pH 8.0, 30 C, O2 as acceptor

Row | Substance | Km [µM] | kcat [s⁻¹] | kcat/Km [M⁻¹ s⁻¹]
1 | Pnao (Pseudomonas putida S16) | 32 ± 1 | 197 ± 1 | 6.1e+06
2 | Pnao (Pseudomonas putida S16; F388A) | 54 ± 1 | 0.75 ± 0.01 | 14000
3 | Pnao (Pseudomonas putida S16; N224G/W220Y) | 150 ± 0 | 135 ± 2 | 910000
4 | Pnao (Pseudomonas putida S16; N224I/W220Y) | 570 ± 50 | 383 ± 19 | 680000
5 | Pnao (Pseudomonas putida S16; R96A) | 56 ± 1 | 0.75 ± 0.06 | 13000
6 | Pnao (Pseudomonas putida S16; R96A/S461A) | 83 ± 12 | 0.39 ± 0.01 | 4700
